The target in assay [1] is T1, MAGE-A3 peptide on HLA-A*02:01 (human).
T1 peptide: FLWGPRALV
The assay is described as above, co-transfected with inhibitor construct C2106, 5 uM NY-ESO-1 peptide; full-length, on cells.

The target of assay [2] is T1, MAGE-A3 peptide on HLA-A*02:01. The assay is described as follows: NFAT-luciferase Jurkat cells, CT139 alone; T2 cells with titrated MAGE-A3 peptide and 50 uM NY-ESO-1 peptide; full-length, on cells.
Assay [3] has the same target. The assay is described as above, co-transfected with the inhibitory CAR C1761 (NY-ESO-1 scFv, LILRB1), 50 uM NY-ESO-1 peptide; reduced against CT139 alone; full-length, on cells.
The target is the same in assay [4]. The description is as above, co-transfected with inhibitor construct C2107, 5 uM NY-ESO-1 peptide; full-length, on cells.

B1: CT139, MAGE-A3 pep1 TCR (both alpha and beta chains) (TCR, V domains shown)
Valpha: AQSVDQPDAHVTLSEGASLELRCSYSYSAAPYLFWYVQYPGQSLQFLLKYITGDTVVKGTKGFEAEFRKSNSSFNLKKSPAHWSDSAKYFCALEGPDTGNYKYVFGAGTRLKVIA
Vbeta: DAGVTQTPRHEVAEKGQTIILKCEPVSGHNDLFWYRQTKIQGLELLSYFRSKSLMEDGGAFKDRFKAEMLNSSFSTLKIQPTEPRDSAVYLCASSFGTASAETLYFGSGTRLTVL
B1: the EC50 of peptide is 40 nM in assay [1], 20 nM in assay [2], over 1000 nM in assay [3] and 100 nM in assay [4].

The values are drawn from patent US20220153807A1 (published 2022).
